US20220387441A1, “TARGETING THE NEUROLIGIN-3 BINDING PARTNER CSPG4 IN GLIOMA” (The Board of Trustees of the Leland Stanford Junior …, priority 2021, published 2022)

Experiments:
DIPG6 xenografts = test: DIPG6 xenograft survival; assay type: in vivo; details: 40 mg/kg IP, 5 days with 2 days of rest, P130 through P158, DIPG6 cells in cortices of NSG mice
Experimental: Dosing of 40 mg/kg was administered via IP injection for 5 days with 2 days of rest in between cycles. Mice were then followed until death.

[1] = test system: CSPG4 shedding from glioma cells (DIPG neurospheres 13pons, 21); test: CSPG4 Release Assay (western blot of conditioned medium); assay type: cell-based, human
Source text: (§1) Here, we provide evidence that both NLGN3 and CSPG4 ectodomains are in fact cleaved in response to neuronal activity, but that these events are separated in space and time. NLGN3 undergoes ADAM-mediated cleavage in response to glutamate-mediated depolarization, freeing the NLGN3 ectodomain to bind the LNS domains of CSPG4 and induce its subsequent cleavage from the membrane (FIG. 2A). High-grade glioma cells constitutively shed proteins such as CSPG4 and NLGN3 into their culture medium. […] These proteins represent cleaved ectodomains, given their failure to react with a C-terminal CSPG4 antibody (FIG. 2B). We also note that these proteins appear as smears by western blot in large part due to the effects of chondroitin sulfate as treatment of conditioned medium with Chondroitinase ABC collapses these smears into sharp bands (FIG. 2B).
CSPG4 Release Assay: DIPG neurospheres (13pons, 21) were cultured in defined medium (1:1 Neurobasal and DMEM F12, 1× Glutamax, 1× pen/strep, 1×MEM NEAA, 1× sodium pyruvate, 1×HEPES, 1×B-27 (w/o vit A) supplement, heparin, EGF, FGF, PDGF-AA, PDGF-BB) at 37C, 5% CO2. Cells were pelleted at 250G×5 min, medium aspirated, and washed in HBSS w/o calcium and magnesium. […] Dissociated and washed cells were resuspended in HBSS plus Ca+/Mg+ and counted. […]

DIPG13p xenografts = test: DIPG13p xenograft survival; assay type: in vivo; details: 30 mg/kg oral gavage daily (5 days on/2 days off) until death, DIPG 13p cells in pons of NSG mice
Source text: Blockade of CSPG4 RIP via gamma secretase inhibition attenuates glioma growth. Given that CSPG4 is the largest and most structurally complex member of the surfaceome with several validated binding partners and numerous reported functions, we sought to disrupt signaling events downstream of CSPG4 RIP. To that end, we xenografted human glioma cells into pons of immune-deficient mice and treated them with gamma secretase inhibitor to prevent CSPG4 RIP. The treatment of murine OPCs with a gamma secretase inhibitor accelerated their differentiation in vitro as assessed by MBP staining and in line with reports from others.
Treatment was continued daily (5 days on/2 days off) until death with mice receiving 30 mg/kg of gamma secretase inhibitor or matched vehicle by oral gavage.

CTLA4 = target: T1, CTLA4 (Homo sapiens, UniProt P16410); details: cited from earlier work
T1 construct: CTLA4 is expressed exclusively on T cells; host or cells: patients' T cells (endogenous)
T1 sequence (P16410 36-223): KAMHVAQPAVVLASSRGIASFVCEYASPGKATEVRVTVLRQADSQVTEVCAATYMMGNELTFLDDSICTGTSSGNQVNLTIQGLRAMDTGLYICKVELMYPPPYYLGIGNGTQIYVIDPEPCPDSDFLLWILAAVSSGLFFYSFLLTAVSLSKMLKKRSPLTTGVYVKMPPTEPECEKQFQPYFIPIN

[2] = test system: mouse-derived optic pathway glioma cells; test: AN2 shedding from mouse-derived optic pathway glioma cells; assay type: cell-based; details: mouse-derived optic pathway glioma cells incubated with human sNLGN3
Source text: as §1

primary mouse OPCs = test: AN2 shedding from primary mouse OPCs; assay type: cell-based; details: primary mouse OPCs incubated with human sNLGN3
Source text: as §1

Molecule: COC(=O)N1CC2(CC2)C[C@H](C(=O)NO)[C@H]1C(=O)N1CC=C(c2ccccc2)CC1 [Aderbasib]
- mouse survival (DIPG6 xenografts): extends mouse survival

Molecule: CNC(=O)[C@@H](NC(=O)[C@H](CCCc1ccccc1)[C@H](C)N(O)C=O)C(C)(C)C [G1254023X]
- shedding of CSPG4 into culture medium (baseline ADAM-mediated cleavage) ([1]; pre-treatment of glioma cells with ADAM10i, 4 uM, 15 minutes): prevents shedding

Molecule: CC(C)(C(=O)NCC(F)(F)C(F)(F)F)C(=O)N[C@@H]1C(=O)Nc2ccccc2-c2ccccc21 [RO4929097]
- mouse survival (DIPG13p xenografts): extends mouse survival

Molecule: Tremelimumab: fully humanized CTLA4 antibody
- toxicity (CTLA4; 10 mg/kg monthly regimen versus 15 mg/kg every 3 months, randomized clinical trial): doubled
- sustained plasma level in patients with the majority of responses (CTLA4; at one month): > 30 µg/mL
- dose at which objective responses were evident (CTLA4; single antibody infusion, doses 0.01 mg/kg to 15 mg/kg, patients): ≥ 3 mg/kg

B1: recombinant NLGN3 ectodomains: recombinant human NLGN3 ectodomain, produced in house (protein, UniProt Q9NZ94 38-709, looked up)
extracellular domain: QAPAPTVNTHFGKLRGARVPLPSEILGPVDQYLGVPYAAPPIGEKRFLPPEPPPSWSGIRNATHFPPVCPQNIHTAVPEVMLPVWFTANLDIVATYIQEPNEDCLYLNVYVPTEDVKRISKECARKPNKKICRKGGSGAKKQGEDLADNDGDEDEDIRDSGAKPVMVYIHGGSYMEGTGNMIDGSILASYGNVIVITLNYRVGVLGFLSTGDQAAKGNYGLLDQIQALRWVSENIAFFGGDPRRITVFGSGIGASCVSLLTLSHHSEGLFQRAIIQSGSALSSWAVNYQPVKYTSLLADKVGCNVLDTVDMVDCLRQKSAKELVEQDIQPARYHVAFGPVIDGDVIPDDPEILMEQGEFLNYDIMLGVNQGEGLKFVEGVVDPEDGVSGTDFDYSVSNFVDNLYGYPEGKDTLRETIKFMYTDWADRDNPETRRKTLVALFTDHQWVEPSVVTADLHARYGSPTYFYAFYHHCQSLMKPAWSDAAHGDEVPYVFGVPMVGPTDLFPCNFSKNDVMLSAVVMTYWTNFAKTGDPNKPVPQDTKFIHTKANRFEEVAWSKYNPRDQLYLHIGLKPRVRDHYRATKVAFWKHLVPHLYNLHDMFHYTSTTTKVPPPDTTHSSHITRRPNGKTWSTKRPAISPAYSNENAQGSWNGDQDAGPLLVENPRDYSTELS
modifications: extracellular domain
notes: recombinant human NLGN3 ectodomain, produced in house
- ADAM-mediated CSPG4 cleavage ([1]; glioma cells exposed to 100 nM recombinant human NLGN3 ectodomain, 1 hour): augments this ADAM-mediated CSGP4 cleavage
- shedding of murine AN2 [2]: augment the shedding of murine AN2
- shedding of murine AN2 (primary mouse OPCs): augment the shedding of murine AN2
